From article doi:10.1101/2021.03.17.435802 come the findings set out here.

In test [1] the target is ACE2(HH:NN)-Fc LALA-PG (human) (UniProt Q9BYF1). Briefly: SPR.
A further test concerns the target ACE2(HH:NN)-Fc (human) (UniProt Q9BYF1). In words: SPR.

Turning to “SARS-CoV-2 S1 B.1.1.7 (from UniProt P0DTC2 14-680) (domain or fragment)”, the fold enhanced affinity (against S1 WT) (in test [1]; with ACE2(HH:NN)-Fc (human)) was 3 fold each time.
